We go through six molecules from PMC9364601.

Experiment [1] addresses microtubules polymerized from tubulin purified from goat brain, Taxol-stabilised (goat).
For experiment [2] the target is unchanged. Nature of the experiment: single-molecule motility assay (TIRF); Taxol-stabilised MTs adsorbed on the coverslip, purified fluorescent motors in the motility mix; P12 buffer pH 6.8, BSA, 2 mM ATP, room temperature; run time and detachment rate computed from run length and velocity.
Experiment [3] shares this target. This is another data set of the same source.

Turning to “KIF16B(1–400)-mCit-Flag (from UniProt Q96L93 1-400) (domain or fragment)”, in experiment [1], the Km for microtubules of the MT-stimulated ATPase (Michaelis-Menten fit; 10 nM motor, 1-80 µM MTs, BRB80, room temperature) came to 2.43 µM. In addition, in experiment [2], the detachment rate from the MT (koff) amounted to 0.1 s⁻¹ and the mean run time (average time spent on the MT) is 9.83 s.
For “KIF1A R167C mutant motor, purified (domain or fragment)”, the microtubule affinity from the enzyme kinetics of the MT-stimulated ATPase, decrease compared to wild-type motors (times (decrease against wild type)) in experiment [3] was 1.5.
For the molecule “KIF1A(1-393LZ)-mCit-Flag (from UniProt F1M4A4 1-393) (domain or fragment)”, in experiment [1], the Km for microtubules of the MT-stimulated ATPase (Michaelis-Menten fit; 10 nM motor, 1-80 µM MTs, BRB80, room temperature) was found to be 7.03 µM. Also, in experiment [2], the detachment rate from the MT (koff) was determined as 0.23 s⁻¹ and the mean run time (average time spent on the MT) amounted to 4.38 s.
Consider “KHC(1–560)-mCit-Flag (from UniProt P56536 1-560) (domain or fragment)”, for which the Km for microtubules of the MT-stimulated ATPase (Michaelis-Menten fit; 10 nM motor, 1-80 µM MTs, BRB80, room temperature) in experiment [1] turned out to be 10.2 µM. For the same molecule, in experiment [2], the detachment rate from the MT (koff) came to 0.72 s⁻¹ and the mean run time (average time spent on the MT) stood at 1.39 s.

B1: KIF13B(1-412ΔP391)-mCit-Flag (domain or fragment)
chain: MGDSKVKVAVRIRPMNRRETDLHTKCVVDVDANKVILNPVNTNLSKGDARGQPKVFAYDHCFWSMDESVKEKYAGQDIVFKCLGENILQNAFDGYNACIFAYGQTGSGKSYTMMGTADQPGLIPRLCSGLFERTQKEENEEQSFKVEVSYMEIYNEKVRDLLDPKGSRQTLKVREHSVLGPYVDGLSKLAVTSYKDIESLMSEGNKSRTVAATNMNEESSRSHAVFKITLTHTLYDVKSGTSGEKVGKLSLVDLAGSERATKTGAAGDRLKEGSNINKSLTTLGLVISALADQSAGKNKNKFVPYRDSVLTWLLKDSLGGNSKTAMVATVSPAADNYDETLSTLRYADRAKHIVNHAVVNEDPNARIIRDLREEVEKLREQLTKAEAMKSELKDRLEESEKLIQEMTVTWE
For the molecule B1, in experiment [1], the Km for microtubules of the MT-stimulated ATPase (Michaelis-Menten fit; 10 nM motor, 1-80 µM MTs, BRB80, room temperature) was found to be 4.23 µM. In experiment [2], the detachment rate from the MT (koff) was determined as 0.12 s⁻¹ and the mean run time (average time spent on the MT) turned out to be 8.06 s.

B2: KIF13A(1-411ΔP390)-mCit-Flag (domain or fragment)
chain: MSDTKVKVAVRVRPMNRRELELNTKCVVEMEGNQTVLHPPPSNTKQGERKPPKVFAFDYCFWSMDESNTTKYAGQEVVFKCLGEGILEKAFQGYNACIFAYGQTGSGKSFSMMGHAEQLGLIPRLCCALFKRISLEQNESQTFKVEVSYMEIYNEKVRDLLDPKGSRQSLKVREHKVLGPYVDGLSQLAVTSFEDIESLMSEGNKSRTVAATNMNEESSRSHAVFNIIITQTLYDLQSGNSGEKVSKVSLVDLAGSERVSKTGAAGERLKEGSNINKSLTTLGLVISSLADQAAGKGKSKFVPYRDSVLTWLLKDNLGGNSQTSMIATISPAADNYEETLSTLRYADRAKRIVNHAVVNEDPNAKVIRELREEVEKLREQLSQAEAMKAELKEKLEESEKLIKELTVTWE
As for B2, the Km for microtubules of the MT-stimulated ATPase (Michaelis-Menten fit; 10 nM motor, 1-80 µM MTs, BRB80, room temperature) in experiment [1] came out at 5.16 µM. Also, in experiment [2], the detachment rate from the MT (koff) amounted to 0.15 s⁻¹ and the mean run time (average time spent on the MT) was 6.61 s.
